Laboratory results as given in the DeepSol protein solubility set.

Assay: soluble on expression in E. coli; label from the status in PepcDB or PDB records

Sequence | soluble on expression in E. coli
MGSDKIHHHHHHMTENFWRELPRPFFVLAPMEDVTDVVFRHVVSEAGRPDVFFTEFTNSESYCHPDGKDSVRGRLTFTEDEQPIVAHIWGDKPENFRKMSIGMAELGFKGLDINMGCPVPNVAGNGKGSGLICRPAVAAELIQAAKAGGLPVSVKTRLGYTDVDEWREWLTHILKQDIANLSIHLRTRAEMSKVDAHWELIPEIKKLRDEVAPDTLLTINGDIPDRQTGLKLAEQYGVDGIMIGRGIFTNPFAFEKEPKEHSSKELLDLLRLHLDLHDEYSKEEARPYKPLPRFFKIYLRGFRGASELRNQCMNTKSTDEVRALLDDFERKYLDGIE | not soluble
MIRFIIPLMDCARLYGRPVQFKTERTDINSLMFGLPKLPSVDYFAEEEIAHLMTQEFNPLKEKDTDDTMALTMSRFSSYLQERMTKVSKRNTELNFRTFSDVMGMYNTTRDHSKLNCMSDKDNSVKEFSLSDKSNVSSETTNMMNQLQVNAHEYKSSMCERPIVASTSPIA | not soluble
MSERRIDVNRSNYSVIDNEFGNMRDRFEQEMRRVEEEMKRLRSEFEGYRPNGGPPAAISNQPYNAYSNTSSHHETSNRTGGFGSPLPPPSFHGPSDLMAHRPTYDPYLDNLKSPLIKDESDGKTLRLRFDVANYKPEEVTVKTIDNRLLVHAKHEEKTPQRTVFREYNQEFLLPRGTNPEQISSTLSTDGVLTVEAPLPQLAIQQ | not soluble
MGSDKIHHHHHHMLLSMNRVSNPFRATLGSTPPYLAGRRHEIEDFAEALDDGPGAHERISLITGLRGVGKTVLLNAFEEEARARSWWVISETATAGFTERIIDALFRKASEILHTHRRKLSGITLPSIGGIQFSDILEHQPKITLRSVLTEILSWQEEIDRKLGQDSVGLLITLDELHYHRREEVIDFGATIQHLVREDLNISVAMAGIPQSIKPLLASEEGKNPVTFLRRANRIDLGLIDNNEVRKALAEPVEKVGVTWESDALTDAAEACGGYPFMIQLIGQQCFKRKRSNFITVGSVAEAAVVAKRKLGQLVHEPALADLSEVDRTFLVAMAADDGPSTMSDIAQRLGVNSQYAGNYRRRLIDAEIITSSGYGQVDFELPYMREYLREHAVVDVFKQ | not soluble
MTLLGTALRPAATRVMLLGSGELGKEVAIECQRLGVEVIAVDRYADAPAMHVAHRSHVINMLDGDALRRVVELEKPHYIVPEIEAIATDMLIQLEEEGLNVVPCARATKLTMNREGIRRLAAEELQLPTSTYRFADSESLFREAVADIGYPCIVKPVMSSSGKGQTFIRSAEQLAQAWKYAQQGGRAGAGRVIVEGVVKFDFEITLLTVSAVDGVHFCAPVGHRQEDGDYRESWQPQQMSPLALERAQEIARKVVLALGGYGLFGVELFVCGDEVIFSEVSPRPHDTGMVTLISQDLSEFALHVRAFLGLPVGGIRQYGPAASAVILPQLTSQNVTFDNVQNAVGADLQIRLFGKPEIDGSRRLGVALATAESVVDAIERAKHAAGQVKVQG | soluble
MAHHHHHHMTETVLRLGPQEYAHLTNLNTNTTELILGPLNRPVASHESVALPPTKFVVVPPTQYCLIANPHRTAVDPTTGIAQPVRDAYGQVQVRSGEEEYRWHVPPFPLYPEEAVVKLEDLKVLSARAALQIQVLAAYNVPACSASDSMPSPVRREAGERYSSAAPAPTTLALRSTSRRR | soluble
MAHHHHHHMKEDESDEPVQKKEYEKTFWEQIGKPKHILAPMVDLSELAFRLLCRNYNCHLTFTPMLHAKNFVEHEKYRKSYFQSCEKDEPVIAQFCGNNSKIILNAIEYIKNEVNAVDLNLGCPQQIAKKGNYGAFLLQKHDEVVNLVSDITNNCNIPITCKIRKIDQDYQKTLNLCYDLQSRNVKMITVHGRTKEEKGTNIKQCDYEIIKIIKERLNIPIIANGSIEHFEDIQKCLNYTKADAVMCAEILLEKPYFFSNQNVHTVDVVNEYYDLFLQYESNTKYLKGHLFKMLYKYFQVHTDLRDMLNNCHSLDDYVNFRSILNEKRSSGVLTESSLSWYRRYRKTE | not soluble
MSVDYPRDLIGYGSNPPHPHWPGKARIALSFVLNYEEGGERNILHGDKESEAFLSEMVSAQPLQGERNMSMESLYEYGSRAGVWRILKLFKAFDIPLTIFAVAMAAQRHPDVIRAMVAAGHEICSHGYRWIDYQYMDEAQEREHMLEAIRILTELTGERPLGWYTGRTGPNTRRLVMEEGGFLYDCDTYDDDLPYWEPNNPTGKPHLVIPYTLDTNDMRFTQVQGFNKGDDFFEYLKDAFDVLYAEGAEAPKMLSIGLHCRLIGRPARLAALQRFIEYAKSHEQVWFTRRVDIARHWHATHPYTGAAK | soluble
MEQLKCHVKQYAWGKYGEESEVARLFADGHESFQIDQKTPYAELWMGTHPDGPAQLKKCSTKLSTYLAKNPSPLTNNNSAKNIHLPFIMKVMSIRTTLSLQVHPTKEQARRLHEKDPIHYPDRNHKPELAYALTRFELLCGFRPAREILQNLQTFPSFRLLFGGDTYAKPLEDCIQQMKDLNSVDQKSTEFKDSRKYLEDCFRFMMVPERNDVHDLIAKLLSELDNGLRGAVEEVTVGVIRKMSVDFPNDIGIFSPLFLNHMILEPGQCCYYAAEELHAYLSGECVECVGCSNNTIRAAMTPKYIDRDALCSVLNYKMTEQKDYLVPENKLTECVDMYAPDCKDFQLHRIRVGTHQTVEEMMIPTLDCASIFVVVSGKGTLEEATIDNQLIGQYEVKRGDIFYIPPKHNIRFSSCSEPLEGYRTFSYEMGPDHDTRLVTPVQNAVPTITEKMFKLDADMEEAITAVV | not soluble
GSVDIEVQDLEEFALRPAPQGITIKCRITRDKKGMDRGMFPTYFLHLDREDGKKVFLLAGRKRKKSKTSNYLISVDPTDLSRGGDSYIGKLRSNLMGTKFTVYDNGVNPQKASSSTLESGTLRQELAAVCYETNVLGFKGPRKMSVIVPGMNMVHERVCIRPRNEHETLLARWQNKNTESIIELQNKTPVWNDDTQSYVLNFHGRVTQASVKNFQIIHGNDPDYIVMQFGRVAEDVFTMDYNYPLCALQAFAIALSSFDSKLACE | soluble
MGSDKIHHHHHHMPNTIHQDEGRPIVNSNDHDSPAESRASGVLNLTHLRTLVAVVQEGHLTRAAERLRISQPAASHHLRSLEQQFGLPLFTRTPQGVVPTAAGLQLSEQAARLLASSLELLSTASELRGSASGRIAIGTIEDPSVHAALPSLIKWFHEHYPLIELSIESRNSSSIRQGILTGEINAGFYVSCTNEANLREYEIGQRELVVVAPQSWRERVATATWPELAKLPWVMTTTGSAHSEITAQLFRSHNITIRPALEVNTERLLRAMVSQGVGLGFTRREFAEAEQARGAFFIVPISVHRTTMHFAYARSAETDPLIQILSRGLATVLPVAERLIPSTAKPAEK | not soluble
MDSSSISSLLEDLKHSDALVREQATKKLWRIWFQQKGMYGLEKIDQSQKLLDAGEITEAEVMLTQLIQEQPDFAEAWNRRAFLYYSMGEYQKSLADCQMVIQINPVHFGALHGIGLCYAALGKYAKAIKAFKRALEIQPYSLVNQKLILECTFRLSLEHHHHHH | not soluble
GLLDLKSMIEKVTGKNALTNYGFYGCYCGWGGRGTPKDGTDWCCWAHDHCYGRLEEKGCNIRTQSYKYRFAWGVVTCEPGPFCHVNLCACDRKLVYCLKRNLRSYNPQYQYFPNILCS | soluble
MGTICDAASPTFMLQHWVRDRRRGSRISLEHAIKRQCHDTARLYGLDDRGVIAPGYLADINVIDFDRVRLLKPWLAFDLPAGGKRLLQKAEGYDYTIKGGKVTFRNGEWTGATPGNLIRGPQRADLMEAAELEHHHHHH | not soluble
GSHMRSEFASGNTYALYVRDTLQPGMRVRMLDDYEEISAGDEGEFRQSNNGVPPVQVFWESTGRTYWVHWHMLEILGFEEDIEDMVEADEYQGAVASRVLGRALP | soluble
MTSLQRKGPQTRILSTGEEEKLKRDQALVSAFKQQKLEKEAQKNWDLFYKRNSTNFFKDRHWTTREFEELRSCREYEGQKLTLLEAGCGVGNCLFPLLEEDSNIFAYACDFSPRAVDYVKQHPLYNAERCKVFQCDLTRDDLLDHIPPESVDAVTLIFVLSAVHPEKMHLVLLNVYKVLKPGRSVLFRDYGLNDHAMLRFKAGSKLGENFYVRQDGTRSYFFTDEFLAKLFVDAGYEEVVNEYVFRETVNKKEGLCVPRVFLQSKFRKPPKDPAPTTDSASLLRKEF | not soluble
MHEITLCQRALELIEQQASAYGAKRVTAVWIKIGAFSCVETSALSFCFDLVCRGTIAEGCKLHLEEQEAECWCEHCQQYVTLLTHRVRRCPQCHSDTLRIVADDGLQIRRIEIDETED | not soluble
MKERMQKTSAQAHDFPQRARTESEWYEGVQTFMWMTEDNIVEVPFDKEHLLEIILSPSNLNKAYKAVVRNNGSGGIDKMSCEQLLSWLKANKDELIISLQSGTYRPNPVRRVEIPKDNGKKRLLGIPTVVDRLVQQAINQVLTLIYERQFSKTSYGFRPQRGCHDALRKAQKIVSEGYIYVVDLDLERFFDTVSHSKLIEILSRTIKDGRVISLIHKYLRSGVINRGMFEMSTEGTPQGGPLSPLLSNIMLNELDKELERRGHPFVRYADDAMIFCKSKRAAKRVRESITLFIEGKLFLKVNHEKTVVSYVKGVKFLGYSFYVKKGDCILLVHSKSKNKMKSKLKELTSRSNGWGYEKRKQKLKDYIRGWIAYFCLAQMKRLCIETDEWLRRRIRMCIWKSWKNAKTRVANLKKCGVSEWQAYQWGNTRLGYWRVSNSPIVTFVMSNDKLRKAGYMEFMDCYLKWCPK | not soluble
MSDIAPAAHSPYIPPTPEVGLPLWLLAELTYRCPLQCPYCSNPLDFARQGQELTTEQWFKVMQEAREMGAAQIGFSGGEPLVRQDLAELIAEARRLGFYTNLITSGIGLTEEKIIAFKKAGLDHIQISFQASDEQVNNMLAGSKKAFAQKLEMAKAVKKHGYPMVLNFVTHRHNIDRIDKIIELCLALEADFVELATCQFYGWAHLNRVGLLPTKDQLVRAEAVTNEYRDQLAAQDHPCKLIFVTPDYYEERPKACMNGWGNIFLTVTPDGTALPCHGARQMPIQFPNVREHSMQHIWYDSFGFNRFRGYDWMPEPCRSCDEKEKDFGGCRCQAFMLTGDAANADPVCSKSYHHGIITQARDESETATQTIEELAFRNDRNSRLIAKSS | not soluble
MKIVWYGHACFLVKTKGVSILIDPYPDVDEDRMEKVDYILITHEHMDHYGKTPLIAKLNDAEVIGPKTVYLMAISDGLTKVREVEADQEFQLGDVTVKTFYTEHPTSQYPLGYLILGEKRVAHLGDTYYSPGFRELRGQVDILLVPIGGRSTASEREAVDIIDIIRPRIVVPMHYGTYGSTGNVESFKRELQRRRVWVLVKDLKPYEGFEV | soluble
MKDLKKIESYLDKLRIKEKDGEERKIYAEVLDGRTLKTLYKLSAKGYITAMGGVISTGKEANVFYADGVFDGKPVAMAVKIYRIETSEFDKMDEYLYGDERFDMRRISPKEKVFIWTEKEFRNLERAKEAGVSVPQPYTYMKNVLLMEFIGEDELPAPTLVELGRELKELDVEGIFNDVVENVKRLYQEAELVHADLSEYNIMYIDKVYFIDMGQAVTLRHPMAESYLERDVRNIIRFFSKYGVKADFEEMLKEVKGE | soluble
MMSTLALVSLAIFGIAVVCAAPKPATVPVANEEDYLAALYGFEAPGSQFKGAPLQSKRHISPSYDVEIDAGNMRNLLDIGKRSAPMASDYGNQFQMYNRLIDAGKKKRSPAISPAYQFENAFGLSEALERAGRR | not soluble
